From publication PMC5508000, “Identification of the Components Involved in Cyclic Di-AMP Signaling in Mycoplasma pneumoniae” (Frontiers in Microbiology, 2017)

Tests used:
[1] = test system: O=[N+]([O-])c1ccc(OP(=O)(O)Oc2ccc([N+](=O)[O-])cc2)cc1; test: OD410 nitrophenol release, microplate; format: biochemical, Mycoplasmoides pneumoniae; details: MnCl2 0.1 mM, 100 mM Tris-HCl pH 8.3, 10 mM NaCl, 37 °C
Source text: OD410 nitrophenol release, microplate on MPN549 (PdeM)

KtrC (MPN461) = target: T1, KtrC (MPN461) (Mycoplasmoides pneumoniae, UniProt P75322); test: pull-down on c-di-AMP agarose, elution with free c-di-AMP, MS identification; format: binding; details: labelled compound: immobilised 2'-AHC-c-di-AMP agarose, eluted with 1 mM free c-di-AMP; cell extract; pH 7.5, 4 °C
T1 construct: gene MPN_461; native protein from M. pneumoniae cell extract, identified by mass spectrometry
T1 sequence (P75322 1-231): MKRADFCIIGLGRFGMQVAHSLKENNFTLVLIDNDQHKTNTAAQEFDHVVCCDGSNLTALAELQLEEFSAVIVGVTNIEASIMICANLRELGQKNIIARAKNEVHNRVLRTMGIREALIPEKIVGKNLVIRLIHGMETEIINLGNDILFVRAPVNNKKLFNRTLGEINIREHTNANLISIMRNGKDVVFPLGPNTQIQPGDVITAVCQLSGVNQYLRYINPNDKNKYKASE

[2] = substrate: O=[N+]([O-])c1ccc(OP(=O)(O)Oc2ccc([N+](=O)[O-])cc2)cc1; test: OD410 nitrophenol release, microplate; format: biochemical, Mycoplasmoides pneumoniae; details: MnCl2 0.1 mM, 100 mM Tris-HCl pH 8.3, 10 mM NaCl, 37 °C; remark: listed apart in the source
Source text: OD410 nitrophenol release, microplate on MPN140 (NrnA)

[3] = substrate: O=[N+]([O-])c1ccc(OP(=O)(O)Oc2ccc([N+](=O)[O-])cc2)cc1; test: OD410 nitrophenol release, microplate; format: biochemical, Bacillus subtilis; details: MnCl2 0.1 mM, 100 mM Tris-HCl pH 8.3, 10 mM NaCl, 37 °C
Source text: OD410 nitrophenol release, microplate on GdpP

Q: With “MPN549 (PdeM) (Mycoplasmoides pneumoniae M129)” as the molecule, how does the Km [1] read?
A: 0.60 mM

Q: Which “pull-down on c-di-AMP agarose, elution with free c-di-AMP, MS identification” value (KtrC (MPN461)) does the source give for `Nc1ncnc2c1ncn2[C@@H]1O[C@@H]2COP(=O)(O)O[C@H]3[C@@H](O)[C@H](n4cnc5c(N)ncnc54)O[C@@H]3COP(=O)(O)O[C@H]2[C@H]1O` [c-di-AMP] here?
A: c-di-AMP-binding proteins were eluted with free c-di-AMP

B1: MPN140 (NrnA) (Mycoplasmoides pneumoniae M129) (protein)
chain: MNSQVHRKGSIAEAVSAIQAHDKIVIFHHIRPDGDCLGAQHGLARLIQTNFPHKQVFCVGDPKHNFPWLEMVFTPKEQITPELMQQALAVIVDANYKERIECRDLLDQNQFKAVLRIDHHPNEDDLNTTHNFVDASYIAAAEQVVDLAVQAKWKLSPPAATALYLGIYTDSNRFLYSNTSWRTLYLGSMLYRAQANIAKIHDELNHTSLKDIQFKQYVFKNFQTFQNVIYFVADKKFQKKLKVTPLECARVNILANIEQFHIWLFFIEEGKNHYRVEFRSNGINVREVALKYGGGGHIQASGAVLKSKRDIIRVVQDCQKQIAV
Q: How did the Km [2] turn out when B1 was run?
A: 1.60 mM

Q: And the kcat [2]?
A: 3.67e-06 s⁻¹

B2: GdpP (Bacillus subtilis subsp. subtilis str. 168) (protein)
chain: PIGIMLFNDQYYIEWANPFLSSCFNESTLVGRSLYDTCESVVPLIKQEVESETVTLNDRKFRVVIKRDERLLYFFDVTEQIQIEKLYENERTVLAYIFLDNYDDVTQGLDDQTRSTMNSQVTSLLNAWAQEYGIFLKRTSSERFIAVLNEHILTELENSKFSILDEVREKTSFDGVALTLSVGVGASVSSLKELGDLAQSSLDLALGRGGDQVAIKLPNGKVKFYGGKTNPMEKRTRVRARVISHALKEIVTESSNVIIMGHKFPDMDSIGAAIGILKVAQANNKDGFIVIDPNQIGSSVQRLIGEIKKYEELWSRFITPEEAMEISNDDTLLVIVDTHKPSLVMEERLVNKIEHIVVIDHHRRGEEFIRDPLLVYMEPYASSTAELVTELLEYQPKRLKINMIEATALLAGIIVDTKSFSLRTGSRTFDAASYLRAKGADTVLVQKFLKETVDSYIKRAKLIQHTVLYKDNIAIASLPENEEEYFDQVLIAQAADSLLSMSEVEASFAVARRDEQTVCISARSLGEVNVQIIMEALEGGGHLTNAATQLSGISVSEALERLKHAIDEYFEGGVQR
notes: cytoplasmic portion, residues 84-659, C-terminal Strep-tag, expressed in E. coli BL21(DE3), plasmid pGP2720
Q: For B2, which Km [3] is on record?
A: 1.45 mM
